We go through 23 substances from publication PMC4661472.

The target of experiment [1] is TMD0^TAP1 L68C single-cysteine mutant (M553) (human). Kind of experiment: cross-linking; crude membranes of M553 cells (tapasin-negative) transfected with single-Cys TMD0^TAP1 without tapasin; 1 mM Cu2+(phenanthroline)3, 10 min, 37 °C; non-reducing SDS-PAGE and immunoblot.
Experiment [2] addresses TMD0^TAP1 L70C single-cysteine mutant (M553) (human). The description is as above.
Experiment [3] has as its target TMD0^TAP1 L107C single-cysteine mutant (M553) (human). Described as above.
Experiment [4] has as its target TMD0^TAP1 V34C single-cysteine mutant (M553) (human). The experiment is described as above.
The target in experiment [5] is TMD0^TAP1 V67C single-cysteine mutant (M553) (human). The experiment is described as above.
Experiment [6] addresses TMD0^TAP1 W33C single-cysteine mutant (M553) (human). The description is as above.
Experiment [7] deals with TMD0^TAP1 W69C single-cysteine mutant (M553) (human). Described as above.
Experiment [8] addresses tapasin (human), wild type, in HeLa cells (UniProt O15533). Put plainly: co-immunoprecipitation with immunoblot densitometry. The following applies: transient transfection of HeLa cells; IP via C-terminal c-Myc tag of TMD0TAP1; three independent experiments.
Sequence of UniProt O15533 (O15533 21-448): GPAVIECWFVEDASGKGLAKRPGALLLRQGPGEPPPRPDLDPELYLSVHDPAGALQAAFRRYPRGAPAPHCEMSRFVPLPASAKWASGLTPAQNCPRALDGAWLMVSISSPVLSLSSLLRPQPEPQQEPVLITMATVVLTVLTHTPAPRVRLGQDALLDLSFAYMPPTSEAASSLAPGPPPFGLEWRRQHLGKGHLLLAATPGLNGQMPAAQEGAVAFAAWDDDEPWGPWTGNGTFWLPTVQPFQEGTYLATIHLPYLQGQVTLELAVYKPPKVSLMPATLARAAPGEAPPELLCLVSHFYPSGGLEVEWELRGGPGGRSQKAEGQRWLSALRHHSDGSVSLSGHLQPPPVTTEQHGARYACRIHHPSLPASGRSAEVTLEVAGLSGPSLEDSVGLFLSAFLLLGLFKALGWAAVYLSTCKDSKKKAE

Substance “TMD0^TAP1 L68C single-cysteine mutant (M553) (domain or fragment)” had a stoichiometry N in experiment [1] of 2.

For “TMD0^TAP1 L70C single-cysteine mutant (M553) (domain or fragment)”, the stoichiometry N in experiment [2] came out at 2.

On to “TMD0^TAP1 L107C single-cysteine mutant (M553) (domain or fragment)”, for which the stoichiometry N in experiment [3] turned out to be 2.

With “TMD0^TAP1 V34C single-cysteine mutant (M553) (domain or fragment)”, the stoichiometry N in experiment [4] was determined as 2.

In experiment [5], “TMD0^TAP1 V67C single-cysteine mutant (M553) (domain or fragment)” came in with a stoichiometry N of 2.

As for “TMD0^TAP1 W33C single-cysteine mutant (M553) (domain or fragment)”, the stoichiometry N in experiment [6] amounted to 2.

The substance “TMD0^TAP1 W69C single-cysteine mutant (M553) (domain or fragment)” had a stoichiometry N in experiment [7] of 2.

Turning to “TMD0^TAP1, parent of the single-cysteine mutants (Cys-less TAP background) A31C”, in experiment [8], the response is 22%.

For the substance “TMD0^TAP1, parent of the single-cysteine mutants (Cys-less TAP background) A106C”, the response in experiment [8] amounted to 42%.

In the case of “TMD0^TAP1, parent of the single-cysteine mutants (Cys-less TAP background) A150C”, in experiment [8], the response was determined as 25%.

Take “TMD0^TAP1, parent of the single-cysteine mutants (Cys-less TAP background) A151C”: the response in experiment [8] was determined as 47%.

With “TMD0^TAP1, parent of the single-cysteine mutants (Cys-less TAP background) D32C”, the response in experiment [8] was found to be 0%.

In experiment [8], “TMD0^TAP1, parent of the single-cysteine mutants (Cys-less TAP background) L68C” displayed a response of 51%.

Regarding “TMD0^TAP1, parent of the single-cysteine mutants (Cys-less TAP background) L70C”, in experiment [8], the response stood at 27%.

On to “TMD0^TAP1, parent of the single-cysteine mutants (Cys-less TAP background) L105C”, for which, in experiment [8], the response is 26%.

The substance “TMD0^TAP1, parent of the single-cysteine mutants (Cys-less TAP background) L107C” displayed a response in experiment [8] of 46%.

As to “TMD0^TAP1, parent of the single-cysteine mutants (Cys-less TAP background) L148C”, in experiment [8], the response turned out to be 12%.

“TMD0^TAP1, parent of the single-cysteine mutants (Cys-less TAP background) P108C”: the response in experiment [8] is 29%.

As for “TMD0^TAP1, parent of the single-cysteine mutants (Cys-less TAP background) P149C”, the response in experiment [8] turned out to be 86%.

In experiment [8], “TMD0^TAP1, parent of the single-cysteine mutants (Cys-less TAP background) V34C” had a response of 17%.

In experiment [8], “TMD0^TAP1, parent of the single-cysteine mutants (Cys-less TAP background) V67C” returned a response of 19%.

“TMD0^TAP1, parent of the single-cysteine mutants (Cys-less TAP background) W33C” gave a response in experiment [8] of 9%.

For “TMD0^TAP1, parent of the single-cysteine mutants (Cys-less TAP background) W69C”, the response in experiment [8] is 81%.
